Measured values published in FireProtDB (doi:10.1529/biophysj.106.103804).

Settings: Bacillus licheniformis, CD, reversible: Yes
[1] = pH 6, Thermal, Sodium phosphate Sodium fluoride 25 mM 100 mM
[2] = pH 6.5, Thermal, Sodium phosphate Sodium fluoride 25 mM 100 mM
[3] = pH 7, 22 °C, Urea, Fluorescence, Thiol reactivity, Sodium phosphate 100 mM, transition: 3
[4] = pH 7, Thermal, Sodium phosphate Sodium fluoride 25 mM 100 mM
[5] = pH 7.5, Thermal, Sodium phosphate Sodium fluoride 25 mM 100 mM
[6] = pH 8, Thermal, Sodium phosphate Sodium fluoride 25 mM 100 mM

MKLWFSTLKLKKAA [wild type]
heat capacity change of unfolding [1]: 3.9 kcal/mol/K | unfolding enthalpy (van 't Hoff) [1]: 141 kcal/mol | unfolding free energy [1]: 7.2 kcal/mol | Tm [2]: 67.9 °C | unfolding enthalpy (van 't Hoff) [2]: 147 kcal/mol | denaturant midpoint (higher = more stable) [3]: 3 M | unfolding free energy [3]: 5.2 kcal/mol | Tm [4]: 67 °C | unfolding enthalpy (van 't Hoff) [4]: 140 kcal/mol | Tm [5]: 66.5 °C | unfolding enthalpy (van 't Hoff) [5]: 163 kcal/mol | Tm [6]: 65.1 °C | unfolding enthalpy (van 't Hoff) [6]: 133 kcal/mol
